Reference: US7588931B2, “High arachidonic acid producing strains of Yarrowia lipolytica” (E. I. du Pont de Nemours and Company, priority 2004, dated 2009)
Entries after “also recorded” stand apart in the source; their conditions may differ.

B1: FBA: Y. lipolytica fructose-bisphosphate aldolase promoter, SEQ ID NO:161 (nucleic acid, listed as Yarrowia lipolytica)
DNA: TAAACAGTGTACGCAGTACTATAGAGGAACAATTGCCCCGGAGAAGACGGCCAGGCCGCCTAGATGACAAATTCAACAACTCACAGCTGACTTTCTGCCATTGCCACTAGGGGGGGCCTTTTTATATGGCCAAGCCAAGCTCTCCACGTCGGTTGGGCTGCACCCAACAATAAATGGGTAGGGTTGCACCAACAAAGGGATGGGATGGGGGGTAGAAGATACGAGGATAACGGGGCTCAATGGCACAAATAAGAACGAATACTGCCATTAAGACTCGTGATCCAGCGACTGACACCATTGCATCATCTAAGGGCCTCAAAACTACCTCGGAACTGCTGCGCTGATCTGGACACCACAGAGGTTCCGAGCACTTTAGGTTGCACCAAATGTCCCACCAGGTGCAGGCAGAAAACGCTGGAACAGCGTGTACAGTTTGTCTTAACAAAAAGTGAGGGCGCTGAGGTCGAGCAGGGTGGTGTGACTTGTTATAGCCTTTAGAGCTGCGAAAGCGCGTATGGATTTGGCTCATCAGGCCAGATTGAGGGTCTGTGGACACATGTCATGTTAGTGTACTTCAATCGCCCCCTGGATATAGCCCCGACAATAGGCCGTGGCCTCATTTTTTTGCCTTCCGCACATTTCCATTGCTCGGTACCCACACCTTGCTTCTCCTGCACTTGCCAACCTTAATACTGGTTTACATTGACCAACATCTTACAAGCGGGGGGCTTGTCTAGGGTATATATAAACAGTGGCTCTCCCAATCGGTTGCCAGTCTCTTTTTTCCTTTCTTTCCCCACAGATTCGAAATCTAAACTACACATCACACAATGCCTGTTACTGACGTCCTTAAGCGAAAGTCCGGTGTCATCGTCGGCGACGATGTCCGAGCCGTGAGTATCCACGACAAGATCAGTGTCGAGACGACGCGTTTTGTGTAATGACACAATCCGAAAGTCGCTAGCAACACACACTCTCTACACAAACTAACCCAGCTCTCC
modifications: misc_feature: Promoter FBA
B2: FBAIN: fructose-bisphosphate aldolase + intron promoter, SEQ ID NO:162 (nucleic acid, listed as Yarrowia lipolytica)
DNA: AAATTGCCCCGGAGAAGACGGCCAGGCCGCCTAGATGACAAATTCAACAACTCACAGCTGACTTTCTGCCATTGCCACTAGGGGGGGGCCTTTTTATATGGCCAAGCCAAGCTCTCCACGTCGGTTGGGCTGCACCCAACAATAAATGGGTAGGGTTGCACCAACAAAGGGATGGGATGGGGGGTAGAAGATACGAGGATAACGGGGCTCAATGGCACAAATAAGAACGAATACTGCCATTAAGACTCGTGATCCAGCGACTGACACCATTGCATCATCTAAGGGCCTCAAAACTACCTCGGAACTGCTGCGCTGATCTGGACACCACAGAGGTTCCGAGCACTTTAGGTTGCACCAAATGTCCCACCAGGTGCAGGCAGAAAACGCTGGAACAGCGTGTACAGTTTGTCTTAACAAAAAGTGAGGGCGCTGAGGTCGAGCAGGGTGGTGTGACTTGTTATAGCCTTTAGAGCTGCGAAAGCGCGTATGGATTTGGCTCATCAGGCCAGATTGAGGGTCTGTGGACACATGTCATGTTAGTGTACTTCAATCGCCCCCTGGATATAGCCCCGACAATAGGCCGTGGCCTCATTTTTTTGCCTTCCGCACATTTCCATTGCTCGGTACCCACACCTTGCTTCTCCTGCACTTGCCAACCTTAATACTGGTTTACATTGACCAACATCTTACAAGCGGGGGGCTTGTCTAGGGTATATATAAACAGTGGCTCTCCCAATCGGTTGCCAGTCTCTTTTTTCCTTTCTTTCCCCACAGATTCGAAATCTAAACTACACATCACACAATGCCTGTTACTGACGTCCTTAAGCGAAAGTCCGGTGTCATCGTCGGCGACGATGTCCGAGCCGTGAGTATCCACGACAAGATCAGTGTCGAGACGACGCGTTTTGTGTAATGACACAATCCGAAAGTCGCTAGCAACACACACTCTCTACACAAACTAACCCAGCTCTCC
modifications: misc_feature: Promoter FBAIN

Experiments:
Assay type in all cases: cell-based, Yarrowia lipolytica
[1] = tested on: β-glucuronidase (GUS) reporter; assay: Comparative analysis of promoters by fluorometric assay of GUS expression; settings: for GUS activity relative to the GPD promoter: ATCC #76982 strains, FIG. 6A
Experimental: GUS activity was also assayed by fluorometric determination of the production of 4-methylumbelliferone (4-MU) from the corresponding substrate β-glucuronide (Jefferson, R. A. Plant Mol. Biol. Reporter 5:387-405 (1987)).
Yarrowia lipolytica ATCC #76982 strains containing plasmids pY5-30, PYZGDG, PYZGMG, pDMW212 and pDMW214 were grown from single colonies in 3 mL MM (as described above) at 30° C. to an OD600˜1.0. Then, the 3 mL cultures were each added to a 500 mL flask containing 50 mL MM and grown in a shaking incubator at 30° C. for about 24 hrs. The cells were collected by centrifugation, resuspended in Promega Cell Lysis Buffer and lysed using the BIO 101 Biopulverizer system (Vista, Calif.). After centrifugation, the supernatants were removed and kept on ice.
Similarly, Y. lipolytica strain Y2034 containing plasmids pY5-30, pYAT-GUS, pYGPAT-GUS and pDMW214 constructs, respectively, were grown from single colonies in 10 mL SD medium at 30° C. for 48 hrs to an OD600˜5.0. Two mL of each culture was collected for GUS activity assays, as described below, while 5 mL of each culture was switched into HGM.
Specifically, cells from the 5 mL aliquot were collected by centrifugation, washed once with 5 mL of HGM and resuspended in HGM. The cultures in HGM were then grown in a shaking incubator at 30° C. for 24 hrs. Two mL of each HGM culture were collected for the GUS activity assay, while the remaining culture was allowed to grow for an additional 96 hrs before collecting an additional 2 mL of each culture for the assay.
Each 2 mL culture sample in SD medium was resuspended in 1 mL of 0.5× cell culture lysis reagent (Promega). Resuspended cells were mixed with 0.6 mL of glass beads (0.5 mm diameter) in a 2.0 mL screw cap tube with a rubber O-ring. The cells were then homogenized in a Biospec mini beadbeater (Bartlesville, Okla.) at the highest setting for 90 sec. The homogenization mixtures were centrifuged for 2 min at 14,000 rpm in an Eppendof centrifuge to remove cell debris and beads. The supernatant was used for GUS assay and protein determination.
For each fluorometric assay, 100 μl of extract was added to […] of GUS assay buffer (2 mM 4-methylumbelliferyl-β-D-glucuronide (“MUG”) in extraction buffer) or 200 μl of extract was added to 800 μl of GUS assay buffer. The mixtures were placed at 37° C. Aliquots of 100 μl were taken at 0, 30 and 60 min time points and added to 900 μl of stop buffer (1 M Na2CO3). Each time point was read using a CytoFluor Series 4000 Fluorescence Multi-Well Plate Reader (PerSeptive Biosystems, Framingham, Mass.) set to an excitation wavelength of 360 nm and an emission wavelength of 455 nm. Total protein concentration of each sample was determined using 10 μl of extract and 200 μl of BioRad Bradford reagent or 20 μl of extract and 980 μl of BioRad Bradford reagent (Bradford, M. M. Anal. Biochem. 72:248-254 (1976)). GUS activity was expressed as nmoles of 4-MU per minute per mg of protein.

[2] = tested on: β-glucuronidase (GUS) reporter; assay: Relative promoter activity rank from comparative GUS reporter studies (histochemical, fluorometric and/or Real Time PCR); set-up: key: a ‘1’ corresponds to the promoter with lowest activity; a ‘7’ corresponds to the promoter with highest activity; settings: relative to other promoters
How it was run: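 GUS activity from each promoter construct was measured by histochemical and/or fluorometric assays and/or Real Time PCR. Promoters were ranked relative to one another, from 1 (lowest activity) to 7 (highest activity).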

[3] = tested on: β-glucuronidase (GUS) reporter; assay: Comparative analysis of promoters by histochemical analysis of GUS expression; settings: ATCC #76982 strains, MM, FIG. 5B
Experimental: Comparative studies investigating the promoter activities of the TEF, GPD, GPDIN, GPM, GPAT, FBA, FBAIN and YAT1 promoters were performed, by synthesizing constructs comprising each promoter and the E. coli gene encoding β-glucuronidase (GUS) as a reporter gene (Jefferson, R. A. Nature. 14(342):837-838 (1989)). Then, GUS activity was measured by histochemical and fluorometric assays (Jefferson, R. A. Plant Mol. Biol. Reporter 5:387-405 (1987)) and/or by using Real Time PCR for mRNA quantitation.
Yarrowia lipolytica ATCC #76982 strains containing plasmids pY5-30, pYZGDG, pYZGMG, pDMW212 and pDMW214 were grown from single colonies in 3 mL MM at 30° C. to an OD600˜1.0. Then, 100 μl of cells were collected by centrifugation, resuspended in 100 μl of histochemical staining buffer, and incubated at 30° C. Staining buffer was prepared by dissolving 5 mg of 5-bromo-4-chloro-3-indolyl glucuronide (X-Gluc) in 50 μl dimethyl formamide, followed by the addition of 5 mL 50 mM NaPO4, pH 7.0.
In a separate experiment, Y. lipolytica Y2034 strains containing plasmids pY5-30, pYGPAT-GUS, pYAT-GUS and pDMW214 were grown from single colonies in 5 mL SD media at 30° C. for 24 hrs to an OD600˜8.0. Then, 1 mL of cells were collected by centrifugation. The remaining cultures were centrifuged and washed 2× with HGM, resuspended in 5 mL each of HGM and allowed to grow at 30° C. further. After 24 and 120 hrs, ˜0.25 mL of each culture were centrifuged to collect the cells. Cell samples were resuspended individually in 100 μl of histochemical staining buffer (supra). Zymolase 20T (5 μl of 1 mg/mL; ICN Biomedicals, Costa Mesa, Calif.) was added to each, and the mixture incubated at 30° C. […]

Molecule | GUS activity relative to the GPD promoter [1] | Activity “Rank” [2] | promoter activity by histochemical staining [3] | GUS activity ([1]; strain Y2034, 24 hr, HGM) | GUS activity ([1]; strain Y2034, 48 hr, SD) | GUS activity ([1]; strain Y2034, 120 hr HGM) | reduction of promoter activity ([1]; switched from SD medium into HGM for 24 hrs)
B1 | 2.2 times | 4 | active; also recorded: much stronger than all the other promoters |  |  |  | 
B2 | about 6.6 times | 7 | active; also recorded: strongest promoter activity | 30.694 nmoles of 4-MU per minute per mg of protein | 43.333 nmoles of 4-MU per minute per mg of protein | 17.200 nmoles of 4-MU per minute per mg of protein | 30%
